According to the supplement of paper PMC7125110:
± gives the standard error. Variants at the floor of the assay were thinned out.

B1: glmS ribozyme (parent)
chain: AUAAAAGCGCCAGAACUACAGAAAUGUAGUUGACGAGGAGGAGGUUUAUCGAAUUUUCGGCGGAUGCCUCCAAA

Columns and labels:
Details in all cases: with glucosamine-6-phosphate
[1] = variants of: B1; assay: self-cleavage kobs at 40 uM GlcN6P; higher = faster cleavage; RNA array
In short: (§1)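 kobs was derived by fitting per-tile medians to one- or two-exponential decays after normalising signals to baseline and to non-cleaving reference variants. Those signals came from barcoded ribozyme variants transcribed in situ by E. coli RNA polymerase on sequenced MiSeq chips, followed through a hybridised Cy3 probe at 37 °C and imaged over ~14 h. Glucosamine-6-phosphate (40 μM to 10 mM) in HEPES/KCl/Mg(OAc)2 buffer was flowed in. Weighted Michaelis–Menten fits across concentrations then gave kcat and KM.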

[2] = variants of: B1; assay: self-cleavage kobs at 640 uM GlcN6P; higher = faster cleavage; RNA array
In short: as §1

[3] = variants of: B1; assay: self-cleavage kobs at 10000 uM GlcN6P; higher = faster cleavage; RNA array
In short: as §1

[4] = variants of: B1; assay: self-cleavage kobs at 160 uM GlcN6P; higher = faster cleavage; RNA array
In short: as §1

[5] = variants of: B1; assay: self-cleavage kobs at 2500 uM GlcN6P; higher = faster cleavage; RNA array
In short: as §1

Row | Variant | self-cleavage kobs at 40 uM GlcN6P [1] [s⁻¹] | self-cleavage kobs at 640 uM GlcN6P [2] [s⁻¹] | self-cleavage kobs at 10000 uM GlcN6P [3] [s⁻¹] | self-cleavage kobs at 160 uM GlcN6P [4] [s⁻¹] | self-cleavage kobs at 2500 uM GlcN6P [5] [s⁻¹]
1 | A12U A36U G44A | < 1e-05 |  |  |  | 
2 | A12C A42U C58U | < 1e-05 |  |  |  | 
3 | A12U G38C A52G C58A | < 1e-05 |  |  |  | 
4 | A12C A36G A64C | < 1e-05 | < 1e-05 | < 1e-05 |  | 
5 | A12G A33G C34U A48C C71G | < 1e-05 |  |  |  | 
6 | C10U U31C G66U | < 1e-05 |  | < 1e-05 | < 1e-05 | 
7 | A12U A14U A53G | 0.000135 ± 3.3e-05 |  | 0.00411 ± 0.00079 |  | 
8 | C11G C16A A33U C58G | < 1e-05 |  |  |  | 
9 | C11G G43C A64U | < 1e-05 |  | < 1e-05 |  | 
10 | C11U A14C A36G C50A | < 1e-05 |  | < 1e-05 |  | 
11 | A12U C34U G41U G66C | < 1e-05 |  | < 1e-05 |  | < 1e-05
12 | A12U G41C C58A | < 1e-05 |  | < 1e-05 |  | < 1e-05
13 | C11G A15G A53C | < 1e-05 |  |  |  | < 1e-05
14 | A12G U47A G60A | < 1e-05 | < 1e-05 |  | < 1e-05 | 
15 | C11G A36G | < 1e-05 | < 1e-05 | < 1e-05 | < 1e-05 | < 1e-05
16 | C11G C58U | < 1e-05 |  | < 1e-05 | < 1e-05 | 
17 | C11A A48G | < 1e-05 | < 1e-05 |  | < 1e-05 | < 1e-05
18 | C10U G38U G41A | < 1e-05 |  |  |  | 
19 | C10U G29C G35A G44U C50A U55C A64U | < 1e-05 |  | < 1e-05 |  | 
20 | A12U A14U G32U | < 1e-05 |  | 8.48e-05 ± 2e-05 |  | 
21 | C11G A36G G40C | < 1e-05 | < 1e-05 | < 1e-05 | < 1e-05 | < 1e-05
22 | C11A A12G U65A C67G | 0.000126 ± 3e-05 | 0.000193 ± 6.4e-05 | 5.83e-05 ± 1.5e-05 | 0.000766 ± 0.00026 | 0.000105 ± 2.9e-05
23 | A12U A39U | 0.00122 ± 0.00014 | 0.0129 ± 0.0047 | 0.0541 ± 0.013 | 0.0029 ± 0.00074 | 0.00925 ± 0.0022
24 | C11G G35C | < 1e-05 | < 1e-05 | < 1e-05 | < 1e-05 | < 1e-05
25 | A12G G32A | < 1e-05 |  | 5.21e-05 ± 7.4e-06 | < 1e-05 | 
26 | C10U C11U A64G U65A | < 1e-05 |  |  |  | 

Row | Variant | self-cleavage kobs at 40 uM GlcN6P [1] [s⁻¹] | self-cleavage kobs at 640 uM GlcN6P [2] [s⁻¹] | self-cleavage kobs at 10000 uM GlcN6P [3] [s⁻¹] | self-cleavage kobs at 160 uM GlcN6P [4] [s⁻¹] | self-cleavage kobs at 2500 uM GlcN6P [5] [s⁻¹]
27 | C11U A36C C61U | < 1e-05 | < 1e-05 |  |  | 
28 | A12U G41U C61U | < 1e-05 | < 1e-05 | < 1e-05 | < 1e-05 | < 1e-05
29 | A12U U45G U46A | 0.000262 ± 8.5e-05 |  |  |  | 0.00886 ± 0.0031
30 | C11A U49C | < 1e-05 |  | < 1e-05 | < 1e-05 | < 1e-05
31 | C10U G35U C67U | < 1e-05 |  |  |  | 
32 | C11G U31A | < 1e-05 | < 1e-05 |  | < 1e-05 | 
33 | C10U U65C | < 1e-05 |  | < 1e-05 |  | 
34 | C11A U46A | < 1e-05 | < 1e-05 | < 1e-05 |  | 
35 | C10U C34G C58U | < 1e-05 |  |  |  | 
36 | A12C G38C A42U | < 1e-05 |  | < 1e-05 |  | 
37 | C11G A15U C34G A39U A48G | < 1e-05 | < 1e-05 |  |  | < 1e-05
38 | C11A C16A U47C C61U | < 1e-05 |  |  |  | < 1e-05
39 | C10U C34G G41U A52U C58A G66A C71A | < 1e-05 |  |  |  | 
40 | C10U U31G G40U | < 1e-05 |  |  |  | 
41 | A12U U31C G41A G60U | < 1e-05 |  |  |  | 
42 | C11A A14G A52C G63A | < 1e-05 |  |  |  | 
43 | C11G U46A | < 1e-05 |  | < 1e-05 | < 1e-05 | < 1e-05
44 | C11A C34U | < 1e-05 | < 1e-05 |  |  | 
45 | C11G A14U A39U | < 1e-05 |  |  |  | 
46 | C11A G40U G41U G60C U65C | < 1e-05 |  | < 1e-05 |  | 
47 | A12C U45A C58G C67G | < 1e-05 |  |  |  | 
48 | A12U G32U C50G | 7.78e-05 ± 3.4e-05 |  |  |  | 
49 | C10U C11G G43C G59A | < 1e-05 |  |  | < 1e-05 | < 1e-05
50 | C10U G37A | < 1e-05 |  | < 1e-05 | < 1e-05 | 
51 | C10U G37C | < 1e-05 | < 1e-05 | < 1e-05 |  | 
52 | A12U A36G U54A | < 1e-05 |  |  |  | 
